Source: PMC5316852

Biological target: NavMs prokaryotic sodium channel, wild type, full-length construct (Magnetococcus marinus (Magnetococcus sp. strain MC-1)) (UniProt A0L5S6)
Assay: crystal structure; sitting drop, 0.05 M NaCl, 0.1 M MES pH 6.5, 37.8% v/v PEG 400, 4% ethylene glycol; protein purified in HEGA-10; molecular replacement with NavAb (PDB 3RVY)

stoichiometry N: 4
Substance: NavMs prokaryotic sodium channel, wild type, full-length construct (from UniProt A0L5S6 1-274) (natural protein)
